Laboratory results as given in publication PMC5397206.

Target: Prp43 (yeast) (UniProt P53131)
Chain of UniProt P53131 (P53131 whole entry): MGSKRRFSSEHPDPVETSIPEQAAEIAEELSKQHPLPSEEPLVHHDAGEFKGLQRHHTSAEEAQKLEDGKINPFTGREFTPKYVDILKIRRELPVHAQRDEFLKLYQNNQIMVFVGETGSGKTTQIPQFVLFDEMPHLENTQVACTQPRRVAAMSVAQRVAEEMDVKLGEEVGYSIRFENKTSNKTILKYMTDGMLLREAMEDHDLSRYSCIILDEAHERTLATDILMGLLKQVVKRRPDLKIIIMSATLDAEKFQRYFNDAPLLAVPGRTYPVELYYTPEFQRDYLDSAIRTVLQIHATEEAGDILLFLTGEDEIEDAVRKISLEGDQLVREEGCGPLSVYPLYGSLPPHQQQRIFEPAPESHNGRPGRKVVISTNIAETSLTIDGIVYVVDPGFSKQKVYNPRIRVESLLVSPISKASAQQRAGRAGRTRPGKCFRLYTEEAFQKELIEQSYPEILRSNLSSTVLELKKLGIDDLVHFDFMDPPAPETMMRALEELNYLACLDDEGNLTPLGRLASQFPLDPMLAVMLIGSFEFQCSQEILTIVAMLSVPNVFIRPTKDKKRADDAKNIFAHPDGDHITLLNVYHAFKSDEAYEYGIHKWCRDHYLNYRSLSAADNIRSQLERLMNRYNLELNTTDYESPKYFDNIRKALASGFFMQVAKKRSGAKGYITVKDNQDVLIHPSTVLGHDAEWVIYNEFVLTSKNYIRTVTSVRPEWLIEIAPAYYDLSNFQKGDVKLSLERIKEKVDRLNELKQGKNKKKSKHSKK

catalytic efficiency of Prp43 ATPase (kcat/KM), Pfa1FL versus Pfa1GP: 3 fold
B1: Pfa1 full-length (Pfa1FL) (natural protein)
chain: MAKRHSHYQGSRRRHARGSNSKKAGRGNAKGIQGRKIKKKPTPTNSWHNSSIPLGEGDLDDVGADFNPGRAFISPKTIEDYYFGRDAKSRSMKMGGLRPGNRYDSSTDLQAGRAAFRKRPMQFVKAKEVYDPSHNMIQKLRAKNETKNSEEIVEREADVFEEPGKMTSDVEYINNEDSENEDDDSQNSPSTDHSLSSNESKVEDGDLFFVDEEAQQSPDLTKIKRVCIEEIARPREVAIEFDPILTIGKVELSVSEGNESKEISVDVPNKGNKTYHPFAGYISNVLHGMHTSDSDNDELDYEIETENNSEPLYESSASSEVDQGFNYVGQRHNSRADNNLLPSPSPQLTEDIKCLSINGTKTFEGNNDNLPSPASEELEFGFKEEDFVINTNDIVVSNIRMGGVDNSYYLRCYRLLGDYDFHWIDQDLLTDFVVDELGLPEDRLPAYLNFIKNSLIPKIEPAEPTYSDIPISDSSDEGDSYEGDSYEDDEDMASSVVHSDIEEGLDDLIAYTLKHDTERFKTFETKSLETKGKGKKKKLLIDDALALDTETLETLQSKFSKRIETKAKKRKAKEDFIDQENRNSNDMLKKYPYGLHIQNIKDEFESFLSRNNDRLTFPPLDPHGNKTVMKIAKHYNMKSSKIGKANHTSVVVEKIKKTKWSSPNYSLIDQLMRQRPVFMRIDIRRPREEQAAFERTKTIRGKFHVKEGEIVGQNAPEIGNENIGRRMLEKLGWKSGEGLGIQGNKGISEPIFAKIKKNRSGLRHSES
